# Source: the supplement of paper PMC12042874
# ± gives the uncertainty stated by the source.
# Assay: amyloid nucleation score (Sup35N fusion, yeast selection) (log enrichment); library NNK2; higher = more nucleation; inactive = no reads after selection
# Summary of the method: (§1)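 In psi-negative yeast, Sup35N fusions carrying peptides of 20 random codons were induced with 100 μM copper sulfate for 24 hours. The cells then grew 7 days at 30°C on medium lacking adenine and uracil, and plasmid inserts from input and output were Illumina-sequenced, excluding sequences with under 100 input reads. Nucleation score is the DiMSum log enrichment of output over input reads, centred on the mode score of non-aggregating sequences.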
row,Substance,amyloid nucleation score
1,LTLLR,-0.122 ± 0.42
2,TISYKELLFANRFRELQPAD,0.299 ± 0.49
3,YWSETCLSMGENEHFNSWKI,inactive
4,RALEIALMLSTTCKSGFRRE,5.56 ± 0.06
5,LIRVYRKVGLVTLLHGMNRM,0.039 ± 0.32
6,IKNSRNVLLMPLLANHWHNS,-0.58 ± 0.63
7,HSGFADFGRMEMIRDPTGRD,1.96 ± 0.15
8,SDVKYIGMCSCQHSFIMMGM,0.372 ± 0.36
9,VNYRNLMKESLCILRQTYTL,0.031 ± 0.65
10,RGRTGRCSAFSQSILNGLRA,-0.181 ± 0.63
11,LFINNDTNDNYH,-1.18 ± 0.47
12,RCSSRPCDLCVTEWIRRMEG,0.357 ± 0.45
13,HDIVRIALHYQQRVVCAWSC,0.713 ± 0.24
14,FQCSYVWVKLWHILN,-0.887 ± 1.1
15,FLCVYDFVVRNIKGIVLRLH,0.294 ± 0.8
16,SGSGSTAILGKTSGHVCLAI,0.713 ± 0.58
17,VRVHCLHLVYYYSQCPRYNN,-0.277 ± 1.1
18,VKEGSLCFYMRRRTGQL,-0.627 ± 0.76
19,FSWFDWKGYVLSWIRSYSSE,inactive
20,VFIVYLWWTLRSWHIRVLIS,-0.52 ± 1.1
21,SNITDWVTTKVRMEKRPVVQ,inactive
22,VFTKLTLSSI,0.227 ± 1.1

row,Substance,amyloid nucleation score
1,RLHEYVSLLRGNQRVAHSRS,3.893 ± 0.037
2,LIDNFS,-0.351 ± 0.45
3,CNLSVVYLLDMAD,3.99 ± 0.044
4,VSRMYKHLSYMVLIYSPWRE,-0.315 ± 1
5,ILTWVAHILLP,3.72 ± 0.072
6,WMTRIFTINVGNWWGFMHSR,3.02 ± 0.056
7,WNKYLCFKFRFYLPFVNYWL,inactive
8,IDHYLVLASLDW,-0.41 ± 0.47
9,WVSSQAEWGVLCGICRSLES,inactive
10,LGIYVFAFKRMVNMEDLYTR,-1.05 ± 0.41
11,MGDTRNGYFSRMLFYTDCPW,0.037 ± 0.43
12,LNGSADTLD,-0.755 ± 0.41
13,GFEWSLSRIDLCSGFGLGAG,1.24 ± 0.29
14,DVYTQASLGMS,inactive
15,VDMGGDPWMVNRCELSLRLW,0.881 ± 0.43
16,GGDAYGRINAASYARIPRLS,0.902 ± 0.22
17,LDLNFEWFW,inactive
18,ESMLSEFFWDHS,3.07 ± 0.072
19,RVGSFG,0.596 ± 0.4
20,YDDKLHRPDDFGCRDHSPGM,0.495 ± 0.41
21,AWDEINYD,0.292 ± 0.56
22,KVYSKCFNGFRS,0.164 ± 0.8

row,Substance,amyloid nucleation score
1,IPFLAVACLGDQWDD,0.304 ± 0.18
2,GHIQLRTVYGV,1.2 ± 0.68
3,LLEYNIFLRSIVFDGREEWA,3.18 ± 0.058
4,YVIVTDFYYNMVRVVFVRMA,0.228 ± 1
5,PSSISLTVYKSRMGEYWCKG,inactive
6,ILSLIYGA,-0.084 ± 0.54
7,TVGHDQASYMGFGSFYTSVF,-0.538 ± 0.76
8,SMLESNFRGFFYQ,2.56 ± 0.15
9,YFNIYAVEIVLGIRLFNNVD,1.99 ± 0.067
10,IKHDLSTFNNFSPVSWNMVY,-0.307 ± 0.79
11,SMPLASSMSKHNHWHLV,0.13 ± 0.35
12,CYAIMNGVSFLDLIGGARET,5.85 ± 0.077
13,RFRKSLGALALRRIVGSEAM,1.53 ± 0.39
14,HLNVKLKQVKDGQPCLMRLA,1.67 ± 0.4
15,YRCVWYGFPSRSWAGSSDIL,0.309 ± 0.8
16,IGTGLDADTSM,1.44 ± 0.16
17,MCLMYANWERFDQKNGLR,4.12 ± 0.12
18,DGPWYYTVRAEIQPM,3.78 ± 0.079
19,SDNAEGVSANFFVRPILSVF,-1.47 ± 1.1
20,VQGSEKYGVVLFEY,5.83 ± 0.094
21,GLSQILDDVGWICRVFELQR,0.299 ± 0.37
22,YWSCTMRVFRVTLNCSNS,3.44 ± 0.066

row,Substance,amyloid nucleation score
1,LNTVYCN,-1.09 ± 0.47
2,IYEGIIVIFSDTGTLWRYWI,-2.09 ± 0.54
3,YKNVFHNCILADSSVYWNTH,5.764 ± 0.044
4,LSNWHHFSQSRDFDKSLWVS,-0.386 ± 0.42
5,SLWVASGQSFSDSRQRNVAG,2.27 ± 0.19
6,SVGMKLRREEFGRSAVRAVL,0.901 ± 0.28
7,FLVFVLLGDR,6.23 ± 0.07
8,CLNTLFVEFRCLSMGACCGI,1.1 ± 0.31
9,CASEVDNNSPPRWVRRTAGV,0.777 ± 0.45
10,PGYGPLTMGGS,1.35 ± 0.24
11,GDVDEWCLTGLGLSNIMVGQ,1.52 ± 0.58
12,NHCPHTKWGTTYCAHGCIHA,0.639 ± 0.46
13,LSFGIVKLVMRAFTKKVTKG,0.388 ± 0.47
14,NPINRYCVAHEKLFRNVRSV,1.87 ± 0.29
15,NGLLSRNCIWSFGFESEVEG,inactive
16,PARMNLYVCIYV,7.32 ± 0.081
17,WSLYLVVLAQ,0.294 ± 0.51
18,HIFGNRYWYSFCCFLLLPRR,7.691 ± 0.072
19,MSSPD,6.596 ± 0.034
20,ACQHSG,4.36 ± 0.048
21,NPETQYASLGRS,-0.306 ± 0.38
22,GKPNGGYSTAK,0.777 ± 0.4

row,Substance,amyloid nucleation score
1,VGLACSLS,-1.07 ± 0.78
2,IPMHPLCGVRRNTELRVVEW,1.78 ± 0.25
3,NWCWYHANRLGCFGASCHVV,4.52 ± 0.071
4,KHLRFASEVNFSARVPPPWL,-0.229 ± 0.33
5,IATHHTDESAG,-0.083 ± 0.79
6,AKLPKPSRLHQRLTKQTV,1.19 ± 0.38
7,GYCKVGCFHLRYGSACCVRM,0.511 ± 0.41
8,SNPDSLVLAGMLARMAYRKL,-0.423 ± 0.61
9,IVSSGPIKLNTSCFRTAYML,-0.854 ± 0.63
10,CVTRMDYTDVSDMHLM,0.307 ± 0.56
11,SRYGRTEGRFFVRRRGMHHG,0.21 ± 0.32
12,GTRDHGELGLLFTTTLLFVE,1.39 ± 0.13
13,RFSLSMDLLNPYST,4.15 ± 0.13
14,NGADWATRRIWVSVRAVMGR,0.513 ± 0.32
15,CLLLLCNPRISAE,-0.582 ± 0.76
16,FLFYTFRLRVFFLNCNSEDW,-1.97 ± 0.54
17,SQFLEYTFEYFSGFPGRLVE,-0.316 ± 0.42
18,MTMFTCMWVNRER,4.79 ± 0.057
19,RLAFSKE,-0.065 ± 0.46
20,HTFITVPASGRAATLCTSED,1.14 ± 0.12
21,NTRCGCWLVSAML,0.196 ± 0.77
22,WLFIVFSTLS,-0.19 ± 1

row,Substance,amyloid nucleation score
1,NRTGEYLYRRWVQSGSGGKG,0.553 ± 0.65
2,YYLVYKAGKMLIEYHKSYNW,-1.1 ± 1
3,RFMWLTLSSFQGLAEGLCTF,-0.631 ± 0.76
4,KQVNPPIA,-0.541 ± 1.1
5,LLTAFTTYYLIYHSFSRYLA,-1.47 ± 1.1
6,KFACCRYVGVYYKTTYSILR,-1.17 ± 0.49
7,DFKDEGYQRRV,-0.37 ± 0.65
8,SFLWCPGG,0.221 ± 0.33
9,TSDYYTSNVQDSALRHFFSP,-0.081 ± 0.34
10,FKLICTRSWLRLG,3.91 ± 0.056
11,RVLRSETYDSFSL,-0.163 ± 0.32
12,NGISYQRMTGNGFVESNGAS,4.683 ± 0.034
13,LIFGAKLESGYASVEFSDSD,-0.347 ± 1
14,WLVFQFYVRGRREMVS,1.4 ± 0.2
15,AGTFKRWPLGYECFVSERIG,-0.803 ± 0.49
16,YCCTDQGFSLGYRMLWCRDN,-1 ± 0.24
17,NGVDMVVAAGLSGCRWGRIR,0.249 ± 0.39
18,SLLFVNNWFSVCRKASCIGN,7.787 ± 0.052
19,CALGDATFNVWYMLS,4.14 ± 0.05
20,YYSCPASLLFNTGLPVKYSW,-1.26 ± 0.36
21,TEDVDL,1.5 ± 0.2
22,DEMARVYIHY,0.183 ± 0.74

# Assay: amyloid nucleation score (Sup35N fusion, yeast selection) (log enrichment); library NNK3; higher = more nucleation; inactive = no reads after selection
# Summary of the method: as §1
row,Substance,amyloid nucleation score
1,LTLLR,inactive

# Assay: amyloid nucleation score (Sup35N fusion, yeast selection) (log enrichment); library NNK1; higher = more nucleation; inactive = no reads after selection
# Summary of the method: as §1
row,Substance,amyloid nucleation score
1,CLINFP,0.722 ± 0.74
2,ISLWLFVFCCHIISISKWLL,inactive
3,GYNSVYHLSNVALR,0.928 ± 0.32
4,CVLRMNVFDSKGFWVGYRRD,0.602 ± 0.41
5,KNWARIMRNRNYSVSAILW,0.163 ± 0.61
6,GGIGDQVITRNVGRPREYQR,1.34 ± 0.76
7,DYGAKDHFPIAITKEVMSLN,-0.394 ± 1.2
8,RFSRVFIRLMGDVALSSGLL,0.532 ± 0.53
9,YISNTRRLLQMIVCVMKSYG,inactive
10,VELCHIRSLMFLIQHP,1.05 ± 0.21
11,QLLSISRILLMNRELRRR,-0.623 ± 1
12,ARPFRRCYSKADAWGVQQVG,0.556 ± 0.79
13,GSIIMWHYGYYHGCNFYCCH,6.98 ± 0.07
14,GSTNERYAKNGTS,0.32 ± 0.68
15,RHALIYMVQVAQAGWGGLEV,-0.767 ± 0.78
16,SKFNAIMNCDVIKRSLNCIN,0.022 ± 0.3
17,DVYTLMGEVDELRSFRIIIR,-0.458 ± 0.27
18,KSLVNNCDSVIAL,0.506 ± 0.25

row,Substance,amyloid nucleation score
1,LDRLMESGDFGWKYIMG,inactive
2,MYEMTG,-0.388 ± 0.19
3,HVLHNWSDHDRN,1.23 ± 0.55
4,TNRWADQTNKDAHRQTCD,-0.591 ± 1.1
5,FMHAGIYL,0.043 ± 1
6,NYCFLNQDFCD,3.61 ± 0.2
7,ILESRVPCCLKRGLNKEIGL,0.672 ± 0.46
8,ARHPECQSCSWRYCLYVVHC,inactive
9,FCPNHHNCVISCEWHSGALR,2.51 ± 0.13
10,YSCFSECYTKMSHTLSKNNL,2.11 ± 0.32
11,VRLAL,-0.27 ± 0.26
12,FKSILRYPADRKMS,0.997 ± 0.76
13,TAKSFFRVHFSHWTRHSPSR,4.16 ± 0.14
14,RRYEFKRLGSMSDGVTLRSM,-0.759 ± 0.5
15,FTYIISRISFMRDWVF,-0.257 ± 1.4
16,LCMLWLKVKRHRDMRSIGIW,-0.003 ± 0.42
17,SSERGTWIMVARVQSVTNNV,inactive
